Source: the Human Domainome abundance scans (Beltran et al. 2025)
± gives the uncertainty stated by the source.

B1: SAM and SH3 domain-containing protein 1, residues 630 to 700; numbered along this chain, O94885 (parent)
chain: GRPPQPKSVEDLLDRINLKEHMPTFLFNGYEDLDTFKLLEEEDLDELNIRDPEHRAVLLTAVELLQEYDSN

Variants of: B1
Assay: abundance fitness (aPCA) (normalised: wild type 0, dead -1); higher = more abundant; growth selection in yeast, the domain comes from the species named
Conditions: Homo sapiens

Variant	abundance fitness
GRPPQPKSGEDLLDRINLKEHMPTFLFNGYEDLDTFKLLEEEDLDELNIRDPEHRAVLLTAVELLQEYDSN	-0.868 ± 0.081
GRPPQPKSIEDLLDRINLKEHMPTFLFNGYEDLDTFKLLEEEDLDELNIRDPEHRAVLLTAVELLQEYDSN	-0.235 ± 0.046
GRPPQPKSREDLLDRINLKEHMPTFLFNGYEDLDTFKLLEEEDLDELNIRDPEHRAVLLTAVELLQEYDSN	-0.969 ± 0.084
GRPPQPKSVEMLLDRINLKEHMPTFLFNGYEDLDTFKLLEEEDLDELNIRDPEHRAVLLTAVELLQEYDSN	-0.97 ± 0.088
GRPPQPKSVEALLDRINLKEHMPTFLFNGYEDLDTFKLLEEEDLDELNIRDPEHRAVLLTAVELLQEYDSN	-0.607 ± 0.061
GRPPQPKSVESLLDRINLKEHMPTFLFNGYEDLDTFKLLEEEDLDELNIRDPEHRAVLLTAVELLQEYDSN	-0.749 ± 0.052
GRPPQPKSVEKLLDRINLKEHMPTFLFNGYEDLDTFKLLEEEDLDELNIRDPEHRAVLLTAVELLQEYDSN	-0.766 ± 0.088
GRPPQPKSVENLLDRINLKEHMPTFLFNGYEDLDTFKLLEEEDLDELNIRDPEHRAVLLTAVELLQEYDSN	-0.605 ± 0.067
GRPPQPKSVECLLDRINLKEHMPTFLFNGYEDLDTFKLLEEEDLDELNIRDPEHRAVLLTAVELLQEYDSN	-0.795 ± 0.079
GRPPQPKSVEELLDRINLKEHMPTFLFNGYEDLDTFKLLEEEDLDELNIRDPEHRAVLLTAVELLQEYDSN	0.148 ± 0.049
GRPPQPKSVEWLLDRINLKEHMPTFLFNGYEDLDTFKLLEEEDLDELNIRDPEHRAVLLTAVELLQEYDSN	-0.793 ± 0.093
GRPPQPKSVEQLLDRINLKEHMPTFLFNGYEDLDTFKLLEEEDLDELNIRDPEHRAVLLTAVELLQEYDSN	-0.319 ± 0.052
GRPPQPKSVELLLDRINLKEHMPTFLFNGYEDLDTFKLLEEEDLDELNIRDPEHRAVLLTAVELLQEYDSN	-0.9 ± 0.057
GRPPQPKSVERLLDRINLKEHMPTFLFNGYEDLDTFKLLEEEDLDELNIRDPEHRAVLLTAVELLQEYDSN	-0.926 ± 0.07
GRPPQPKSVETLLDRINLKEHMPTFLFNGYEDLDTFKLLEEEDLDELNIRDPEHRAVLLTAVELLQEYDSN	-0.818 ± 0.064
GRPPQPKSVEILLDRINLKEHMPTFLFNGYEDLDTFKLLEEEDLDELNIRDPEHRAVLLTAVELLQEYDSN	-1.08 ± 0.11
GRPPQPKSVEVLLDRINLKEHMPTFLFNGYEDLDTFKLLEEEDLDELNIRDPEHRAVLLTAVELLQEYDSN	-0.852 ± 0.068
GRPPQPKSVEGLLDRINLKEHMPTFLFNGYEDLDTFKLLEEEDLDELNIRDPEHRAVLLTAVELLQEYDSN	-0.649 ± 0.08
GRPPQPKSVEPLLDRINLKEHMPTFLFNGYEDLDTFKLLEEEDLDELNIRDPEHRAVLLTAVELLQEYDSN	-0.92 ± 0.071

Variant	abundance fitness
GRPPQPKSVEYLLDRINLKEHMPTFLFNGYEDLDTFKLLEEEDLDELNIRDPEHRAVLLTAVELLQEYDSN	-0.717 ± 0.067
GRPPQPKSVEFLLDRINLKEHMPTFLFNGYEDLDTFKLLEEEDLDELNIRDPEHRAVLLTAVELLQEYDSN	-0.925 ± 0.08
GRPPQPKSVEHLLDRINLKEHMPTFLFNGYEDLDTFKLLEEEDLDELNIRDPEHRAVLLTAVELLQEYDSN	-0.78 ± 0.067
GRPPQPKSVMDLLDRINLKEHMPTFLFNGYEDLDTFKLLEEEDLDELNIRDPEHRAVLLTAVELLQEYDSN	-0.398 ± 0.06
GRPPQPKSVCDLLDRINLKEHMPTFLFNGYEDLDTFKLLEEEDLDELNIRDPEHRAVLLTAVELLQEYDSN	-0.463 ± 0.071
GRPPQPKSVSDLLDRINLKEHMPTFLFNGYEDLDTFKLLEEEDLDELNIRDPEHRAVLLTAVELLQEYDSN	-0.423 ± 0.046
GRPPQPKSVLDLLDRINLKEHMPTFLFNGYEDLDTFKLLEEEDLDELNIRDPEHRAVLLTAVELLQEYDSN	-0.532 ± 0.045
GRPPQPKSVYDLLDRINLKEHMPTFLFNGYEDLDTFKLLEEEDLDELNIRDPEHRAVLLTAVELLQEYDSN	-0.418 ± 0.055
GRPPQPKSVIDLLDRINLKEHMPTFLFNGYEDLDTFKLLEEEDLDELNIRDPEHRAVLLTAVELLQEYDSN	-0.446 ± 0.056
GRPPQPKSVFDLLDRINLKEHMPTFLFNGYEDLDTFKLLEEEDLDELNIRDPEHRAVLLTAVELLQEYDSN	-0.443 ± 0.054
GRPPQPKSVPDLLDRINLKEHMPTFLFNGYEDLDTFKLLEEEDLDELNIRDPEHRAVLLTAVELLQEYDSN	-0.357 ± 0.05
GRPPQPKSVNDLLDRINLKEHMPTFLFNGYEDLDTFKLLEEEDLDELNIRDPEHRAVLLTAVELLQEYDSN	-0.53 ± 0.061
GRPPQPKSVADLLDRINLKEHMPTFLFNGYEDLDTFKLLEEEDLDELNIRDPEHRAVLLTAVELLQEYDSN	-0.145 ± 0.046
GRPPQPKSVWDLLDRINLKEHMPTFLFNGYEDLDTFKLLEEEDLDELNIRDPEHRAVLLTAVELLQEYDSN	-0.511 ± 0.086
GRPPQPKSVKDLLDRINLKEHMPTFLFNGYEDLDTFKLLEEEDLDELNIRDPEHRAVLLTAVELLQEYDSN	-0.407 ± 0.066
GRPPQPKSVVDLLDRINLKEHMPTFLFNGYEDLDTFKLLEEEDLDELNIRDPEHRAVLLTAVELLQEYDSN	-0.413 ± 0.053
GRPPQPKSVGDLLDRINLKEHMPTFLFNGYEDLDTFKLLEEEDLDELNIRDPEHRAVLLTAVELLQEYDSN	-0.434 ± 0.063
GRPPQPKSVTDLLDRINLKEHMPTFLFNGYEDLDTFKLLEEEDLDELNIRDPEHRAVLLTAVELLQEYDSN	-0.559 ± 0.052
GRPPQPKSVQDLLDRINLKEHMPTFLFNGYEDLDTFKLLEEEDLDELNIRDPEHRAVLLTAVELLQEYDSN	-0.445 ± 0.066
